The data set concerns the molecule itself. The data set is described as follows: electron cryotomography with subvolume averaging.

B1: CheA, full length, purified, for reconstitution with Tsr membranes (enzyme)
chain: MSMDISDFYQTFFDEADELLADMEQHLLVLQPEAPDAEQLNAIFRAAHSIKGGAGTFGFSVLQETTHLMENLLDEARRGEMQLNTDIINLFLETKDIMQEQLDAYKQSQEPDAASFDYICQALRQLALEAKGETPSAVTRLSVVAKSEPQDEQSRSQSPRRIILSRLKAGEVDLLEEELGHLTTLTDVVKGADSLSAILPGDIAEDDITAVLCFVIEADQITFETVEVSPKISTPPVLKLAAEQAPTGRVEREKTTRSNESTSIRVAVEKVDQLINLVGELVITQSMLAQRSSELDPVNHGDLITSMGQLQRNARDLQESVMSIRMMPMEYVFSRYPRLVRDLAGKLGKQVELTLVGSSTELDKSLIERIIDPLTHLVRNSLDHGIELPEKRLAAGKNSVGNLILSAEHQGGNICIEVTDDGAGLNRERILAKAASQGLTVSENMSDDEVAMLIFAPGFSTAEQVTDVSGRGVGMDVVKRNIQKMGGHVEIQSKQGTGTTIRILLPLTLAILDGMSVRVADEVFILPLNAVMESLQPREADLHPLAGGERVLEVRGEYLPIVELWKVFNVAGAKTEATQGIVVILQSGGRRYALLVDQLIGQHQVVVKNLESNYRKVPGISAATILGDGSVALIVDVSALQAINREQRMANTAA
Regarding B1, the binding result is given as “binds”.
